Patent publication US20260035462A1 (Hoffmann-La Roche, published 2026)
Where two headings read alike, the source gives them in different places.

T1: Trop2 on human cancer cell lines (T-47D, HPAF II, HeLa NLR, OVMANA) (human, UniProt P09758 27-323)
T1 construct: whole, on cells; also called Tumor-associated calcium signal transducer 2
T1 sequence (looked up): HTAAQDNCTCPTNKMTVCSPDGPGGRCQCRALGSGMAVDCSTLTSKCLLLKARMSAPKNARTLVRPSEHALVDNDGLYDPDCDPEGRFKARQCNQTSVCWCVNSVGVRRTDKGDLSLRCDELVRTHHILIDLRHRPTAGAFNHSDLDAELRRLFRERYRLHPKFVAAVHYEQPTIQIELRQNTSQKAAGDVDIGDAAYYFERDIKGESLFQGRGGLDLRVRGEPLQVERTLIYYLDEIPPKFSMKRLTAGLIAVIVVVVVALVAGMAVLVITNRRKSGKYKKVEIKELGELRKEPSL


How the values were obtained:
[1] = biological target: T2, human CD3 on Jurkat NFAT reporter T cells (human, UniProt P07766 23-207); test: flow cytometry on Jurkat NFAT reporter T cells (human CD3), 1:4 titration from 50 nM, FITC anti-human IgG Fcγ secondary antibody, median fluorescence; sample pre-incubated overnight with Matriptase (+M)
T2 construct: whole, on cells; also called CD3 on Jurkat T cells
T2 sequence (P07766 23-207): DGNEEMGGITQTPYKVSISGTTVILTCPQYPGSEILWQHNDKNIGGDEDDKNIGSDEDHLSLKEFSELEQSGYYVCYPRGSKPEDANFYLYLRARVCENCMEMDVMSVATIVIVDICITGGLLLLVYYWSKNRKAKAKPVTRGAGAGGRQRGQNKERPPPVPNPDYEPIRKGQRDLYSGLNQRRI
Description: (§1) Jurkat-NFAT reporter cells (GloResponse Jurkat NFAT-RE-luc2P; Promega #CS176501) are a human acute lymphatic leukemia reporter cell line with a NFAT promoter, expressing human CD3. The cells were cultured in RPMI1640, 2 g/l glucose, 2 g/l NaHCO₃, 10% FBS, 25 mM HEPES, 2 mM L-glutamin, 1×NEAA, 1× sodium-pyruvate at 0.1-0.5 mio cells per ml.
(§2) The next day, Jurkat cells were harvested and transferred into a 96 well round bottom plate (100,000 cells per well). […] After the staining, the cells were washed twice with FACS buffer to remove unbound molecules. […] After 30 minutes incubation at 4° C. the cells were washed twice with FACS buffer to remove unbound antibodies. Finally, the cells were resuspended in 100 μl FACS buffer and analyzed by flow cytometry using BD Canto II.

[2] = biological target: T1, Trop2 on human cancer cell lines …; test: flow cytometry on T-47D cells, FITC anti-human IgG Fcγ secondary antibody, median fluorescence
Description: (§3) Target cells were harvested and transferred into a 96 well round bottom plate (100,000 cells per well). […] After the staining, the cells were washed twice with FACS buffer to remove unbound molecules. […] After 30 minutes incubation at 4° C. the cells were washed twice with FACS buffer to remove unbound antibodies. Finally, the cells were resuspended in 100 μl FACS buffer and analyzed by flow cytometry using BD Canto II.

[3] = biological target: T1, Trop2 on human cancer cell lines …; test: flow cytometry on OVMANA cells, FITC anti-human IgG Fcγ secondary antibody, median fluorescence
Description: as §3

[4] = biological target: T1, Trop2 on human cancer cell lines …; test: flow cytometry on HPAF II cells, FITC anti-human IgG Fcγ secondary antibody, median fluorescence
Description: as §3

[5] = biological target: T1, Trop2 on human cancer cell lines …; test: flow cytometry on HeLa ST14 cells, FITC anti-human IgG Fcγ secondary antibody, median fluorescence
Description: as §3

[6] = biological target: T2, human CD3 on Jurkat NFAT reporter T …; test: flow cytometry on Jurkat NFAT reporter T cells (human CD3), 1:4 titration from 50 nM, FITC anti-human IgG Fcγ secondary antibody, median fluorescence; sample not treated with Matriptase
Description: as §1, §2

[7] = biological target: T2, human CD3 on Jurkat NFAT reporter T …; test: as above; remark: listed apart in the source
Description: Jurkat-NFAT reporter cells (GloResponse Jurkat NFAT-RE-luc2P; Promega #CS176501) are a human acute lymphatic leukemia reporter cell line with a NFAT promoter, expressing human CD3. The cells were cultured in RPMI1640, 2 g/l glucose, 2 g/l NaHCO₃, 10% FBS, 25 mM HEPES, 2 mM L-glutamin, 1×NEAA, 1×sodium-pyruvate at 0.1-0.5 mio cells per ml.
The next day, Jurkat cells were harvested and transferred into a 96 well round bottom plate (100′000 cells per well). […] After the staining, the cells were washed twice with FACS buffer to remove unbound molecules. […] After 30 min incubation at 4° C. the cells were washed twice with FACS buffer to remove unbound antibodies. Finally, the cells were resuspended in a 100 μl FACS buffer and analyzed by flow cytometry using BD Canto II.

| EC50 (read off the curve) [1] [nM] | EC50 (read off the curve) [2] [nM] | EC50 (read off the curve) [3] [nM] | EC50 (read off the curve) [4] [nM] | EC50 (read off the curve) [5] [nM] | binding result [6] | binding result [7] | Binder |
| --- | --- | --- | --- | --- | --- | --- | --- |
| ~0.9 | – | – | – | – | – | – | Matriptase pre-cleaved Trop2 proTCB (P1AI0690 after overnight incubation with Matriptase) (bispecific antibody, also called Matriptase pre-cleaved (+M) Trop2 proTCB) heavy 1: DIQMTQSPSSLSASVGDRVTITCKASQDVSIAVAWYQQKPGKAPKVLIYSASYRYTGVPDRFSGSGSGTDFTFTISSLQPEDIAVYYCQQHYITPLTFGGGTKVEIKSSASTKGPSVFPLAPSSKSTSGGTAALGCLVKDYFPEPVTVSWNSGALTSGVHTFPAVLQSSGLYSLSSVVTVPSSSLGTQTYICNVNHKPSNTKVDKKVEPKSCDKTHTCPPCPAPEAAGGPSVFLFPPKPKDTLMISRTPEVTCVVVDVSHEDPEVKFNWYVDGVEVHNAKTKPREEQYNSTYRVVSVLTVLHQDWLNGKEYKCKVSNKALGAPIEKTISKAKGQPREPQVCTLPPSRDELTKNQVSLSCAVKGFYPSDIAVEWESNGQPENNYKTTPPVLDSDGSFFLVSKLTVDKSRWQQGNVFSCSVMHEALHNHYTQKSLSLSPG heavy 2: not shown light 1: QAVVTQEPSLTVSPGGTVTLTCGSSTGAVTTSNYANWVQEKPGQAFRGLIGGTNKRAPGTPARFSGSLLGGKAALTLSGAQPEDEAEYYCALWYSNLWVFGGGTKLTVLGQPKAAPSVTLFPPSSKKLQANKATLVCLISDFYPGAVTVAWKADSSPVKAGVETTTPSKQSNNKYAASSYLSLTPEQWKSHRSYSCQVTHEGSTVEKTVAPTECS light 2: QIQLVQSGHEVKKPGASVKVSCKASGYTFTNYGMNWVRQAPGQGLEWMGWINTKTGEPTYAEEFKGRFVFSLETSASTAYLQISSLKAEDMAMYFCGRGGYGSSYWYFDVWGQGTTVTVSSASVAAPSVFIFPPSDEQLKSGTASVVCLLNNFYPREAKVQWKVDNALQSGNSQESVTEQDSKDSTYSLSSTLTLSKADYEKHKVYACEVTHQGLSSPVTKSFNRGEC |
| – | ~2 | ~3 | ~2 | ~2 | no binding (tested: 50 nM) | – | non-cleavable Trop2 proTCB P1AI0691 (Trop2 pro-TCB 2+1; non-cleavable) (bispecific antibody, human IgG1, lambda, L234A L235A, H1L2 mask joined by a GS linker without a protease site; also called non-cleavable proTCB) heavy 1: DIQMTQSPSSLSASVGDRVTITCKASQDVSIAVAWYQQKPGKAPKVLIYSASYRYTGVPDRFSGSGSGTDFTFTISSLQPEDIAVYYCQQHYITPLTFGGGTKVEIKSSASTKGPSVFPLAPSSKSTSGGTAALGCLVKDYFPEPVTVSWNSGALTSGVHTFPAVLQSSGLYSLSSVVTVPSSSLGTQTYICNVNHKPSNTKVDKKVEPKSCDKTHTCPPCPAPEAAGGPSVFLFPPKPKDTLMISRTPEVTCVVVDVSHEDPEVKFNWYVDGVEVHNAKTKPREEQYNSTYRVVSVLTVLHQDWLNGKEYKCKVSNKALGAPIEKTISKAKGQPREPQVCTLPPSRDELTKNQVSLSCAVKGFYPSDIAVEWESNGQPENNYKTTPPVLDSDGSFFLVSKLTVDKSRWQQGNVFSCSVMHEALHNHYTQKSLSLSPG heavy 2: not shown light 1: QAVVTQEPSLTVSPGGTVTLTCGSSTGAVTTSNYANWVQEKPGQAFRGLIGGTNKRAPGTPARFSGSLLGGKAALTLSGAQPEDEAEYYCALWYSNLWVFGGGTKLTVLGQPKAAPSVTLFPPSSKKLQANKATLVCLISDFYPGAVTVAWKADSSPVKAGVETTTPSKQSNNKYAASSYLSLTPEQWKSHRSYSCQVTHEGSTVEKTVAPTECS light 2: QIQLVQSGHEVKKPGASVKVSCKASGYTFTNYGMNWVRQAPGQGLEWMGWINTKTGEPTYAEEFKGRFVFSLETSASTAYLQISSLKAEDMAMYFCGRGGYGSSYWYFDVWGQGTTVTVSSASVAAPSVFIFPPSDEQLKSGTASVVCLLNNFYPREAKVQWKVDNALQSGNSQESVTEQDSKDSTYSLSSTLTLSKADYEKHKVYACEVTHQGLSSPVTKSFNRGEC |
| – | – | – | – | – | – | no binding (tested: 50 nM) | non-cleavable IGF-1R proTCB P1AH0969 (IGF-1R pro-TCB 2+1; non-cleavable) (bispecific antibody, human IgG1, lambda, L234A L235A, H1L2 mask joined by a GS linker without a protease site; also called non-cleavable IGF-1R TCB construct; non-cleavable proTCB) heavy 1: EIVLTQSPATLSLSPGERATLSCRASQSVSSYLAWYQQKPGQAPRLLIYDASKRATGIPARFSGSGSGTDFTLTISSLEPEDFAVYYCQQRSKWPPWTFGQGTKVESKSSASTKGPSVFPLAPSSKSTSGGTAALGCLVKDYFPEPVTVSWNSGALTSGVHTFPAVLQSSGLYSLSSVVTVPSSSLGTQTYICNVNHKPSNTKVDKKVEPKSCDKTHTCPPCPAPEAAGGPSVFLFPPKPKDTLMISRTPEVTCVVVDVSHEDPEVKFNWYVDGVEVHNAKTKPREEQYNSTYRVVSVLTVLHQDWLNGKEYKCKVSNKALGAPIEKTISKAKGQPREPQVCTLPPSRDELTKNQVSLSCAVKGFYPSDIAVEWESNGQPENNYKTTPPVLDSDGSFFLVSKLTVDKSRWQQGNVFSCSVMHEALHNHYTQKSLSLSPG heavy 2: not shown light 1: QAVVTQEPSLTVSPGGTVTLTCGSSTGAVTTSNYANWVQEKPGQAFRGLIGGTNKRAPGTPARFSGSLLGGKAALTLSGAQPEDEAEYYCALWYSNLWVFGGGTKLTVLGQPKAAPSVTLFPPSSKKLQANKATLVCLISDFYPGAVTVAWKADSSPVKAGVETTTPSKQSNNKYAASSYLSLTPEQWKSHRSYSCQVTHEGSTVEKTVAPTECS light 2: QVELVESGGGVVQPGRSQRLSCAASGFTFSSYGMHWVRQAPGKGLEWVAIIWFDGSSTYYADSVRGRFTISRDNSKNTLYLQMNSLRAEDTAVYFCARELGRRYFDLWGRGTLVSVSSASVAAPSVFIFPPSDEQLKSGTASVVCLLNNFYPREAKVQWKVDNALQSGNSQESVTEQDSKDSTYSLSSTLTLSKADYEKHKVYACEVTHQGLSSPVTKSFNRGEC |
| – | ~2 | ~1 | ~1 | ~1 | no binding (tested: 50 nM) | – | Trop2 proTCB P1AI0690 (Trop2 pro-TCB 2+1; matriptase; P035.093 PQARK H1L2 mask), not Matriptase pre-cleaved (bispecific antibody, human IgG1, lambda, L234A L235A, Knob-into-hole 2+1 format; also called masked Trop2 proTCB; not pre-cleaved Trop2 proTCB) heavy 1: DIQMTQSPSSLSASVGDRVTITCKASQDVSIAVAWYQQKPGKAPKVLIYSASYRYTGVPDRFSGSGSGTDFTFTISSLQPEDIAVYYCQQHYITPLTFGGGTKVEIKSSASTKGPSVFPLAPSSKSTSGGTAALGCLVKDYFPEPVTVSWNSGALTSGVHTFPAVLQSSGLYSLSSVVTVPSSSLGTQTYICNVNHKPSNTKVDKKVEPKSCDKTHTCPPCPAPEAAGGPSVFLFPPKPKDTLMISRTPEVTCVVVDVSHEDPEVKFNWYVDGVEVHNAKTKPREEQYNSTYRVVSVLTVLHQDWLNGKEYKCKVSNKALGAPIEKTISKAKGQPREPQVCTLPPSRDELTKNQVSLSCAVKGFYPSDIAVEWESNGQPENNYKTTPPVLDSDGSFFLVSKLTVDKSRWQQGNVFSCSVMHEALHNHYTQKSLSLSPG heavy 2: not shown light 1: QAVVTQEPSLTVSPGGTVTLTCGSSTGAVTTSNYANWVQEKPGQAFRGLIGGTNKRAPGTPARFSGSLLGGKAALTLSGAQPEDEAEYYCALWYSNLWVFGGGTKLTVLGQPKAAPSVTLFPPSSKKLQANKATLVCLISDFYPGAVTVAWKADSSPVKAGVETTTPSKQSNNKYAASSYLSLTPEQWKSHRSYSCQVTHEGSTVEKTVAPTECS light 2: QIQLVQSGHEVKKPGASVKVSCKASGYTFTNYGMNWVRQAPGQGLEWMGWINTKTGEPTYAEEFKGRFVFSLETSASTAYLQISSLKAEDMAMYFCGRGGYGSSYWYFDVWGQGTTVTVSSASVAAPSVFIFPPSDEQLKSGTASVVCLLNNFYPREAKVQWKVDNALQSGNSQESVTEQDSKDSTYSLSSTLTLSKADYEKHKVYACEVTHQGLSSPVTKSFNRGEC |
| – | – | – | – | – | – | no binding (tested: 50 nM) | IGF-1R proTCB P1AH0943 (IGF-1R pro-TCB 2+1; matriptase; P035.093 PQARK H1L2 mask), not Matriptase pre-cleaved (bispecific antibody, human IgG1, lambda, L234A L235A, Knob-into-hole 2+1 format with the anti-idiotypic H1L2 scFv mask fused through a PQARK linker to the VH of the CD3 Fab; also called not-Matriptase pre-cleaved IGF-1R proTCB; not pre-cleaved IGF-1R proTCB) heavy 1: EIVLTQSPATLSLSPGERATLSCRASQSVSSYLAWYQQKPGQAPRLLIYDASKRATGIPARFSGSGSGTDFTLTISSLEPEDFAVYYCQQRSKWPPWTFGQGTKVESKSSASTKGPSVFPLAPSSKSTSGGTAALGCLVKDYFPEPVTVSWNSGALTSGVHTFPAVLQSSGLYSLSSVVTVPSSSLGTQTYICNVNHKPSNTKVDKKVEPKSCDKTHTCPPCPAPEAAGGPSVFLFPPKPKDTLMISRTPEVTCVVVDVSHEDPEVKFNWYVDGVEVHNAKTKPREEQYNSTYRVVSVLTVLHQDWLNGKEYKCKVSNKALGAPIEKTISKAKGQPREPQVCTLPPSRDELTKNQVSLSCAVKGFYPSDIAVEWESNGQPENNYKTTPPVLDSDGSFFLVSKLTVDKSRWQQGNVFSCSVMHEALHNHYTQKSLSLSPG heavy 2: not shown light 1: QAVVTQEPSLTVSPGGTVTLTCGSSTGAVTTSNYANWVQEKPGQAFRGLIGGTNKRAPGTPARFSGSLLGGKAALTLSGAQPEDEAEYYCALWYSNLWVFGGGTKLTVLGQPKAAPSVTLFPPSSKKLQANKATLVCLISDFYPGAVTVAWKADSSPVKAGVETTTPSKQSNNKYAASSYLSLTPEQWKSHRSYSCQVTHEGSTVEKTVAPTECS light 2: QVELVESGGGVVQPGRSQRLSCAASGFTFSSYGMHWVRQAPGKGLEWVAIIWFDGSSTYYADSVRGRFTISRDNSKNTLYLQMNSLRAEDTAVYFCARELGRRYFDLWGRGTLVSVSSASVAAPSVFIFPPSDEQLKSGTASVVCLLNNFYPREAKVQWKVDNALQSGNSQESVTEQDSKDSTYSLSSTLTLSKADYEKHKVYACEVTHQGLSSPVTKSFNRGEC |
